Experiments:
[1] = molecular target: T1, MMRN2^EMI-CC (EMI and coiled-coil domains of human MMRN2, His tag) (human, UniProt Q9H8L6 23-820); assay: far western blot, reduced; HEK293T lysates of His-tagged MMRN2 constructs probed with CLEC14A-ECD-Fc
T1 construct: domain: EMI and coiled-coil; HEK293T lysate, blotted under reducing conditions; not shown: C-terminal BirA and His tags of vector pHL-Avitag3
T1 sequence (looked up): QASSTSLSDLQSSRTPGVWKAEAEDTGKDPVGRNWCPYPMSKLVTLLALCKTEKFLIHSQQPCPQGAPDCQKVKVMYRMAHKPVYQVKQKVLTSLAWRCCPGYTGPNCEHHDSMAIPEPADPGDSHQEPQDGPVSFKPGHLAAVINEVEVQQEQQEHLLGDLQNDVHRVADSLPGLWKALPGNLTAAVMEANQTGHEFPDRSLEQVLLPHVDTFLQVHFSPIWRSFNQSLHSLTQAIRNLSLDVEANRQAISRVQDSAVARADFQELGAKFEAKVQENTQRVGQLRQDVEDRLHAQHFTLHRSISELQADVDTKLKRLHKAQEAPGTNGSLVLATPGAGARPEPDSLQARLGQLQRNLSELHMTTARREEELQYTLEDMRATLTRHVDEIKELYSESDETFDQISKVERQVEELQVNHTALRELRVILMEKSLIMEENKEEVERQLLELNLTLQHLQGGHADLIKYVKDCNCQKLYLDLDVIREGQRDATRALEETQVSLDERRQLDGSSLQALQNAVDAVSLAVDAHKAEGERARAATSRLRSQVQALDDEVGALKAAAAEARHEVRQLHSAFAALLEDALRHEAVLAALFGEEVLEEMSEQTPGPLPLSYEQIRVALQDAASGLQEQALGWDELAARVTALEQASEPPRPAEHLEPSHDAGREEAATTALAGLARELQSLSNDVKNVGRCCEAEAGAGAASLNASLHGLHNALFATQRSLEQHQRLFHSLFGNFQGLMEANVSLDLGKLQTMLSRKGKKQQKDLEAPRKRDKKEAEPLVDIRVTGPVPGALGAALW
Description: (§1) FIG. 2. […] (A) Diagrams of MMRN2 truncation mutants, showing the elastin microfibril interface (EMI) domain, coiled-coil (CC) domain and complement related C1q domain. The minimal CLEC14A binding fragment is highlighted in black. (B,C) HEK293T were transfected with truncation mutants. Lysates were far western blotted under reduced conditions with CLEC14A extracellular domain fused to an Fc tag (CLEC14A-ECD-Fc) and western blotted by use of His tag antibodies. (B) The smallest binding fragment was identified as MMRN2⁴⁸⁷⁻⁸²⁰, MMRN2^FL fails to bind CLEC14A-ECD-Fc. (C) The smallest MMRN2 fragment binding CLEC14A is MMRN2⁵³⁰⁻⁶²⁴. (D) MMRN2⁴⁹⁵⁻⁶⁷⁴ and MMRN2⁴⁹⁵⁻⁶⁰³ bind to streptavidin under reducing conditions after biotinylation. (E) Flow cytometry histograms of HEK293T transfected with GFP tagged CTLD group 14 family members and stained with biotinylated MMRN2⁴⁹⁵⁻⁶⁷⁴ (grey line), confirming binding to CLEC14A and CD93 but not thrombomodulin. Streptavidin-PE was used as a control for background binding (grey shaded).
(§2) Whole cell protein lysates were made by incubating with lysis buffer (1% (v/v) NP40, 10 mM Tris pH7.5, 150 mM NaCl and 1 mM EDTA) and pelleting insoluble material. […] The epitope tag of each probed protein was detected with secondary antibody incubation (anti-His or anti-Fc HRP conjugate) and then tertiary anti-mouse HRP for the case of anti-His.

[2] = molecular target: T2, MMRN2^CC-C1q (coiled-coil and C1q domains of human MMRN2, His tag) (human, UniProt Q9H8L6 133-949); assay: as above
T2 construct: domain: coiled-coil and C1q; HEK293T lysate, blotted under reducing conditions; not shown: C-terminal BirA and His tags of vector pHL-Avitag3
T2 sequence (looked up): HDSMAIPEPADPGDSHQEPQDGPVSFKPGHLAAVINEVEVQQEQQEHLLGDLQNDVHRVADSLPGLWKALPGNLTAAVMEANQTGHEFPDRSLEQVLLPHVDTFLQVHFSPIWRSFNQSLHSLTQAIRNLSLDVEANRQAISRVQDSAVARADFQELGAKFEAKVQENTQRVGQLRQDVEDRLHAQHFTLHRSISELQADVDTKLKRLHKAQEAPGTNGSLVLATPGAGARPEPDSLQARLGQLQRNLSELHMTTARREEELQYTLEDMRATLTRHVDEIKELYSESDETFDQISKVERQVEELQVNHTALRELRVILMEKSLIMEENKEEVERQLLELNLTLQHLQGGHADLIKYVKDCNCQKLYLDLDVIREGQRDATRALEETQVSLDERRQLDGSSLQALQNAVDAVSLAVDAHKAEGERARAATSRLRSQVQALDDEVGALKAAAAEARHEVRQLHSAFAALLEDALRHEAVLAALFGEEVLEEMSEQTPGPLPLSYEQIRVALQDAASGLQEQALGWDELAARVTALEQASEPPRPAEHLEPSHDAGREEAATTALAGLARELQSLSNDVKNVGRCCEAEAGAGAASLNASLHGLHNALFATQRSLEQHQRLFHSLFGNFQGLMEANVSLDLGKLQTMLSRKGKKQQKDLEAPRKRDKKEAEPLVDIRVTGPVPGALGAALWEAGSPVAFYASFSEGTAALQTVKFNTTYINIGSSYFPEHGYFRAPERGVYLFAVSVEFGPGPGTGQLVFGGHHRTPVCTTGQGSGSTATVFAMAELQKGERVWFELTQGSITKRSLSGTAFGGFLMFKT
Description: as §1, §2

binding result [1]: binds
binding result [2]: binds
B1: CLEC14A-ECD-Fc (human CLEC14A extracellular domain fused to an Fc tag) (Fc fusion)
chain: EHPTADRAGCSASGACYSLHHATMKRQAAEEACILRGGALSTVRAGAELRAVLALLRAGPGPGGGSKDLLFWVALERRRSHCTLENEPLRGFSWLSSDPGGLESDTLQWVEEPQRSCTARRCAVLQATGGVEPAGWKEMRCHLRANGYLCKYQFEVLCPAPRPGAASNLSYRAPFQLHSAALDFSPPGTEVSALCRGQLPISVTCIADEIGARWDKLSGDVLCPCPGRYLRAGKCAELPNCLDDLGGFACECATGFELGKDGRSCVTSGEGQPTLGGTGVPTRRPPATATSPVPQRTWPIRVDEKLGETPLVPEQDNSVTSIPEIPRWGSQSTMSTLQMSLQAESKATITPSGSVISKFNSTTSSATPQAFDSSS
notes: Expressed in HEK293T cells; also called hCLEC14A-ECD-Fc; C14A-Fc; not shown: human IgG Fc tag

Reference: US20190185532A1 (UNIVERSITY OF BIRMINGHAM, published 2019)
